Measurements reported in patent US20240336927.

System: IgG SLE S6 (anti-BC autoantibody, polyclonal) (human)
Assay: EMSA
Conditions: reactivity relative to BC200 RNA

## U4 snRNA
  binding signal: < 5%
